This series has as its target Biotin-Crosstide (Anaspec).

B1: Akt1-S473E-T308P (protein)
chain: HHHHHHMDFRSGSPSDNSGAEEMEVSLAKPKHRVTMNEFEYLKLLGKGTFGKVILVKEKATGRYYAMKILKKEVIVAKDEVAHTLTENRVLQNSRHPFLTALKYSFQTHDRLCFVMEYANGGELFFHLSRERVFSEDRARFYGAEIVSALDYLHSEKNVVYRDLKLENLMLDKDGHIKITDFGLCKEGIKDGATMKTFCGTPEYLAPEVLEDNDYGRAVDWWGLGVVMYEMMCGRLPFYNQDHEKLFELILMEEIRFPRTLGPEAKSLLSGLLKKDPKQRLGGGSEDAKEIMQHRFFAGIVWQHVYEKKLSPPFKPQVTSETDTRYFDEEFTAQMITITPPDQDDSMECVDSERRPHFPQFEYSASSTA
For the protein B1, the KM (µM) (present results), peptide substrate amounted to 9 µM.

These data come from patent US20250264471.
